Data on 16 sequences can be found in the nanobody polyreactivity screen of Harvey et al. (2022).

The data set in a line: yeast display, Sf9 membrane polyspecificity reagent, FACS + sequencing; frameworks hold sequencing errors. In a few lines: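 Nanobodies from a synthetic yeast display library (Saccharomyces cerevisiae BJ5465), induced 36–48 hours with galactose, were stained 1 hour at 4 °C with 10% biotinylated, detergent-solubilized Sf9 membrane reagent, enriched on streptavidin microbeads, then FACS-sorted. Anti-HA (expression) and streptavidin (reagent binding) fluorescence set low and high (top ~1%) gates. Polyreactivity labels come from the gate of origin. Genes were colony-PCR amplified, MiSeq 2 × 250 sequenced and filtered by CDR length.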
With “QVQLVESGGGLVQAGGSLRLSCAASGSTFYKNAMGWYRQAPGKERELVAAITRSGGSTYYADSVKGRFTISRDNAKNTVYLQMNSLKPVDTAVYYCAYYPYGYDYWGQGTQVTVSS”, the “polyreactivity (PSR sort gate)” value was “high polyreactivity”.
Next, “QVQLVESGGGLVQAGGSLRLSCAASGSTFYKYAMGWYRQAPGKERELVASISRSGGSTSYADSVKGRFTISRDNAKNTVYLQMNSLKPEDTAVYYCAATWRQHPGSMGYWGQGTQVTVSS”: “high polyreactivity”; “QVQLVESGGGLVQAGGSLRLSCAASGSTFYKYAMGWYRQAPGKERELVASISRSGGSTSYADSVKGRFTISRDNAKNTVYLQMNSLKPEDTEVYYCAATWRQHPGSMGYWGQGTQVTVSS”: “high polyreactivity”; “QVQLVESGGGLVQAGGSLRLSCAASGSTFYKYAMGWYRQAPGQVREVVASISSSGGSTYADSVKGRFTISRDNAKNTVYLQMNSLKPEDTAVYYCARVRWIVPWSGPTDDYWGQGTQVTVSS”: “low polyreactivity”.
For “QVQLVESGGGLVQAGGSLRLSCAASGSTFYKYGMGWYRQAPGTERELVAAISGSGDSTYYADSVKGRFTISRDNAKNTVYLQMNSLKPEDTAVYYCNAGPWWYLHEYDYWGQGTQVTVSS” the value was “low polyreactivity”; for “QVQLVESGGGLVQAGGSLRLSCAASGSTFYLYAMGWYRQAPGKEREFVARISASGGNTYYADSVKGRFTISRDNAKNTVYLQMNSLKPEDTAVYYCATRGSRYPYVAYNYWGQGTQVTVSS”, “high polyreactivity”.
For “QVQLVESGGGLVQAGGSLRLSCAASGSTFYLYAMGWYRQAPGKERELVAAISSGGRTNYADSVKGRFTISLDNAKNTVYLQINSLKPEDTAVYYCAARIQWPTWSLYYYWGQGSQVTVSS” the value was “high polyreactivity”; for “QVQLVESGGGLVQAGGSLRLSCAASGSTFYNYAMGWYRQAPGKERELVAAITSSGGSTYYADSVKGRFTISRDNAKNTVYLQMNSLKPEDTAVYYCAATRRDRRKSFTYRYDYWGQGTQVTVSS”, “high polyreactivity”; for “QVQLVESGGGLVQAGGSLRLSCAASGSTFYNYAMGWYRQEPGKERELVAAINYSGGDTYYADSVKGRFTISRDNAKNTVYLQMNSLKPEDNAVYYCNAEWDYYSSNPVQNDYDYWGQGTQVTVSS”, “high polyreactivity”.
Regarding “QVQLVESGGGLVQAGGSLRLSCAASGSTFYPNAMGRYRQAPGKERELVAAISRGTRTKYADSVKGRFTISRDNAKNNVYLQMNSLKPEDTAVYYCAADTGTGLDWGQGTQVNVSS”, the “polyreactivity (PSR sort gate)” value is “high polyreactivity”.
For the sequence “QVQLVESGGGLVQAGGSLRLSCAASGSTFYPNAMGWYIQAPGKERELVADITISGGRTYYADSVKGLFTISRDNAKNTVYLQMNSLKPEDTAVYYCNTRGIFFQSQTHDYWGQGTQVTVSS”, the “polyreactivity (PSR sort gate)” value is “low polyreactivity”.
For “QVQLVESGGGLVQAGGSLRLSCAASGSTFYPNAMGWYRQAPGKERELVAAISGDDSTYYADSVKGRFTISRDNAKNTVYLQMNSLKPEDTAVYYCAAGDYRIGYLYYYWGQGTQVTVSS” the value was “low polyreactivity”; for “QVQLVESGGGLVQAGGSLRLSCAASGSTFYPNAMGWYRQAPGKERELVAAITSAGSTYYADSVKGRFTISRDNAKNTVYLQMNSLKPEDTAVYYCAKRRASRYYWGQGTQVTVSS”, “high polyreactivity”.
As for “QVQLVESGGGLVQAGGSLRLSCAASGSTFYPNAMGWYRQAPGKERELVAAITSGGSTNYADSVKGRFTISRDNAKNTVYLQMNSLKPEDTAVYYCAAVGKYRIRSDYWGQGTQVTVSS”, the “polyreactivity (PSR sort gate)” value is “low polyreactivity”.
For “QVQLVESGGGLVQAGGSLRLSCAASGSTFYPNSMVWYRQAPGKERELVAAISRGTRTKYADSVKGRFTISRDNAKNSVYLQKNSLKPEDTAVYYCAADTGTGLDWGQGTQVTVSS” the value was “high polyreactivity”; for “QVQLVESGGGLVQAGGSLRLSCAASGSTFYPYAMGGYRQAPGKERELVAAISSGGSTYYADSVKGRFTISRDNAKNTVYLQMNSLKPADTAVYYCAADFYYAYYWGQGTQVTVSS”, “low polyreactivity”.
